This passage reports localisation_or_trafficking results from paper PMC3769244.

A short description of this data set: immunofluorescence, data not shown. Particulars: glycan lost; control: untreated.

B1: CLN5: tunicamycin (protein)
parent chain: MAQEVDTAQGAEMRRGAGAARGRASWCWALALLWLAVVPGWSRVSGIPSRRHWPVPYKRFDFRPKPDPYCQAKYTFCPTGSPIPVMEGDDDIEVFRLQAPVWEFKYGDLLGHLKIMHDAIGFRSTLTGKNYTMEWYELFQLGNCTFPHLRPEMDAPFWCNQGAACFFEGIDDVHWKENGTLVQVATISGNMFNQMAKWVKQDNETGIYYETWNVKASPEKGAETWFDSYDCSKFVLRTFNKLAEFGAEFKNIETNYTRIFLYSGEPTYLGNETSVFGPTGNKTLGLAIKRFYYPFKPHLPTKEFLLSLLQIFDAVIVHKQFYLFYNFEYWFLPMKFPFIKITYEEIPLPIRNKTLSGL
As for B1, the localisation_or_trafficking entry is “changes”.
